Experimental data taken from patent US20240076387A1 (published 2024).
Substitutions are numbered along the chain they refer to. Several values for one entry are separate records, joined by “and”; a condition that tells them apart may be missing. Identical values can stand only once.

B1: 27H9 (antibody, human IgG1, lambda, V domains shown)
VH: EVQLLESGGGLVQPGGSLRLSCAASGFTFRDYSMSWVRQAPGKGLEWVSAISWNGDSTYYAESAKGRFTISRDNSKNTLYLQMNSLRAEDTAVYYCAKSWATPIESLYYYGSDYWGQGTLVTVSS
VL: SYELTQPLSVSVALRQTARITCGGNNIGSQTAQWYQQKPGQAPVLVIYANNRRPSGIPERFSGSKSGNTATLTISRAQAEDEADYYCQVWDESTQAIVFGGGTKLTVLG
notes: also called 27H9 WT; 27H9 WT 23/07
B2: 21B3 (antibody, V domains shown)
VH: B1 VH with V2L, L5V, A64M, S75A, R87K, A88S, S112M, Q117K
VL: SYELTQSPSVSVALRQTAKITCGGNNIGSQTAQWYQQKPGQAPVLVIYANNRRPSGIPERFSGSKSGNTATLTISGAQAEDEADYYCQVWDGSTQAIVFGGGTHLTVL
notes: also called 21B3 WT; antibody 21B3
B3: 27H6 (antibody, human IgG1, lambda, V domains shown)
VH: B1 VH with V2L, L5V, R30S, M34A, N54S, A64V, S71F
VL: B1 VL with T17A, R19K, E80G, E92G
notes: also called 27H6 WT; antibody 27H6
B4: 27H4 (antibody, human IgG1, lambda, V domains shown)
VH: B1 VH with V2L, L5V, A64L, S75A
VL: B1 VL with R15G, D91E, E92D
notes: also called 27H4 WT; antibody 27H4
B5: 21B3 AAA (antibody, human IgG1, lambda, V domains shown)
VH: B1 VH with V2L, L5V, A64M, S75A, R87K, A88S, S112M, Q117K
VL: B1 VL with P7S, L8P, R19K, R76G, E92G, K104H
notes: AAA mutation in the Fc region
B6: 27H9 NG/NA AAA (antibody, human IgG1, lambda)
heavy: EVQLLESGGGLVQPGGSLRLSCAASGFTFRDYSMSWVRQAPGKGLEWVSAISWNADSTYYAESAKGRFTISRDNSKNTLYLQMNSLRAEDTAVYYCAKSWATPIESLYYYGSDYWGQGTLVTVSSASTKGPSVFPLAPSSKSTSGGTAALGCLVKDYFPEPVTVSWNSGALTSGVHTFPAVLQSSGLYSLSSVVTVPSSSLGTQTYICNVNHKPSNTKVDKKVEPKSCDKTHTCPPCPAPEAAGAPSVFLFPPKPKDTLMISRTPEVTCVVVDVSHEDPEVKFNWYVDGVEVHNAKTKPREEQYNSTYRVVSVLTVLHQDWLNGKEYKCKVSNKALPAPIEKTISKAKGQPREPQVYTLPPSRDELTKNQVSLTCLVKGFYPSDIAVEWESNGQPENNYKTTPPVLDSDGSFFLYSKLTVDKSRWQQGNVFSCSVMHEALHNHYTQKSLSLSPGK
light: SYELTQPLSVSVALRQTARITCGGNNIGSQTAQWYQQKPGQAPVLVIYANNRRPSGIPERFSGSKSGNTATLTISRAQAEDEADYYCQVWDESTQAIVFGGGTKLTVLGQPKAAPSVTLFPPSSEELQANKATLVCLISDFYPGAVTVAWKADSSPVKAGVETTTPSKQSNNKYAASSYLSLTPEQWKSHRSYSCQVTHEGSTVEKTVAPTECS
notes: also called 27H9_NA_+_AAA; 27H9 NA + AAA
B7: 27H9 NG/NA (antibody, human IgG1, lambda)
heavy: not shown
light: B6 light
B8: 27H9 Fab (Fab, V domains shown)
VH: B1 VH
VL: B2 VL with S7P, P8L, K19R, G76R, G92E, H104K
notes: also called 27H9_VH
B9: 27H6 Fab (Fab, V domains shown)
VH: B1 VH with V2L, L5V, R30S, M34A, N54S, A64V, S71F
VL: B2 VL with S7P, P8L, T17A, G76R, E80G, H104K
notes: also called 27H6_VH
B10: 27H4 Fab (Fab, V domains shown)
VH: B1 VH with V2L, L5V, A64L, S75A
VL: B2 VL with S7P, P8L, R15G, K19R, G76R, D91E, G92D, H104K
notes: also called 27H4_VH
B11: 25F11 Fab (Fab, V domains shown)
VH: B1 VH
VL: B2 VL with S7P, P8L, T17A, K19R, G76R, D91E, G92A, H104K
notes: also called 25F11_VH
B12: 25D4 Fab (Fab, V domains shown)
VH: B1 VH with M34A, A64V, S75A
VL: B2 VL with S7P, P8L, R15G, K19R, D91A, G92A, H104K
notes: also called 25D4_VH
B13: 27G9 Fab (Fab, V domains shown)
VH: B1 VH with M34A, N54S, A64L, Q117K
VL: B2 VL with S7P, P8L, R15G, G76R, D91E, G92E
notes: also called 27G9_VH
B14: 25G9 Fab (Fab, V domains shown)
VH: B1 VH with S52T, N54S, A64V, S112T, Q117K
VL: B2 VL with S7P, P8L, T17A, K19R, G76R, G92D, H104K
notes: also called 25G9_VH
B15: 27H9 NG/QG (antibody, human IgG1, lambda, V domains shown)
VH: B1 VH with N54Q
VL: B1 VL

molecular target: T1, Flt-1 antigen (species not stated) (Homo sapiens (Human), UniProt P17948 27-656); experiment: Biacore
T1 construct: also called sFlt-1; soluble Flt-1
T1 sequence (P17948 other isoform, or with tags, fused parts or gaps limits assumed, form in doubt): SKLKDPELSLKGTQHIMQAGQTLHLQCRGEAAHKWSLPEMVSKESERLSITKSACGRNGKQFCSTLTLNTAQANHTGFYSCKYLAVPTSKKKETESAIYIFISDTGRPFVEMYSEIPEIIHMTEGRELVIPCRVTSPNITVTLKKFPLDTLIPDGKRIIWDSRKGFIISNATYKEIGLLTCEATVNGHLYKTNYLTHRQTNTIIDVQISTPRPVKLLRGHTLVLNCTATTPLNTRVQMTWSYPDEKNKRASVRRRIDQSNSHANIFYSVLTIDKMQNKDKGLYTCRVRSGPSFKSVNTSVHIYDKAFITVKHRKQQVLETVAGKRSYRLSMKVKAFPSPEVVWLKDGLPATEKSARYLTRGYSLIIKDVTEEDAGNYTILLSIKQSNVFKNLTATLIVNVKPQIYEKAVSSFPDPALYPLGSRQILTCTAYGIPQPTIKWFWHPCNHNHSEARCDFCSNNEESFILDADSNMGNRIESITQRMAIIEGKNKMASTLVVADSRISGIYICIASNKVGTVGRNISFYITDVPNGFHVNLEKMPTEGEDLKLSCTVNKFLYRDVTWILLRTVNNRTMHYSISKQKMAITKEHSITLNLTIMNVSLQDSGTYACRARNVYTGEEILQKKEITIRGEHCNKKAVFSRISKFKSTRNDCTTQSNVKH

B1 and B2 are within 1.5-fold of each other in Kd: 0.26 nM for the first, 0.32 nM for the second.

Compared with B3, B4 is 1.6-fold higher in Kd: 0.16 nM for the first, 0.25 nM for the second. The first binds more tightly here.

Going from B1 to B2, the koff rises from 8.4e-05 s⁻¹ to 0.00017 s⁻¹ (2-fold).

Going from B3 to B4, the koff falls from 0.00014 s⁻¹ to 8.2e-05 s⁻¹ (1.7-fold).

Compared with B1, B2 is 1.6-fold higher in kon: 330000 M⁻¹ s⁻¹ for the first, 540000 M⁻¹ s⁻¹ for the second.

Compared with B3, B4 is 2.7-fold lower in kon: 910000 M⁻¹ s⁻¹ for the first, 340000 M⁻¹ s⁻¹ for the second.

molecular target: T1, Flt-1 antigen (species not stated at …); experiment: kinetics of Table 7; 'increased' is said of a higher affinity (lower KD)

B2 was tested, and the “fold change of KD against parent antibody 13B4” value was about 5 fold.

molecular target: T1, Flt-1 antigen (species not stated at …); experiment: surface plasmon resonance (Biacore), EXP 2

Compared with B5, B2 is 1.5-fold higher in Kd: 0.21 nM for the first, 0.32 nM for the second.

B6 and B7 are the same in Kd: 0.51 nM for the first, 0.51 nM for the second.

First: B5
Second: B2
The koff of the first is 1.5-fold lower: 0.00011 s⁻¹ for the first, 0.00017 s⁻¹ for the second.

B6 and B7 are the same in koff: 0.00015 s⁻¹ for the first, 0.00015 s⁻¹ for the second.

B5 and B2 are within 1.5-fold of each other in kon: 520000 M⁻¹ s⁻¹ for the first, 540000 M⁻¹ s⁻¹ for the second.

B6 and B7 are the same in kon: 290000 M⁻¹ s⁻¹ for the first, 290000 M⁻¹ s⁻¹ for the second.

molecular target: T1, Flt-1 antigen (species not stated at …); experiment: off-rate of Fabs, method not stated

First: B8
Second: B9
The “kd IMPROVEMENT (against parent 21B3)” value of the first is higher: 1.12 for the first, 0.96 for the second.

First: B10
Second: B11
The “kd IMPROVEMENT (against parent 21B3)” value of the first is higher: 1.06 for the first, 1 for the second.

Going from B12 to B13, the “kd IMPROVEMENT (against parent 21B3)” value rises from 0.94 to 1.3.

B14 was tested, and the “kd IMPROVEMENT (against parent 21B3)” value was 0.97.

molecular target: T1, Flt-1 antigen (species not stated at …); experiment: kinetics, method not stated (Table 7)

Work on B2 yielded a Kd of 0.0848 nM.

B2 gave a koff of 4.73e-05 s⁻¹.

B2 was tested, and the kon was 558000 M⁻¹ s⁻¹.

molecular target: T1, Flt-1 antigen (species not stated at …); experiment: surface plasmon resonance (Biacore), EXP 1

In the case of B1, the Kd is reported as 0.23 nM and 0.26 nM.

In the case of B1, the koff is reported as 7.9e-05 s⁻¹ and 8.4e-05 s⁻¹.

In the case of B1, the kon is reported as 350000 M⁻¹ s⁻¹ and 330000 M⁻¹ s⁻¹.

B15 and B7 are within 1.5-fold of each other in Kd: 0.36 nM for the first, 0.39 nM for the second.

B15 and B7 are within 1.5-fold of each other in koff: 0.00013 s⁻¹ for the first, 0.00011 s⁻¹ for the second.

B15 and B7 are within 1.5-fold of each other in kon: 370000 M⁻¹ s⁻¹ for the first, 290000 M⁻¹ s⁻¹ for the second.

molecular target: T1, Flt-1 antigen (species not stated at …); experiment: surface plasmon resonance (Biacore); reference not named

In the case of B6, the “fold reduced binding affinity” value is reported as about 2 fold.
